16 sequences from the DeepSol protein solubility set can be followed below.

A short description of the series: soluble on expression in E. coli; label from the status in PepcDB or PDB records.
“MLKIGIVGCGAIGNFITKKVLDGTIKNAKISAVYDRNFDKAKTLSERTGAKICSSIDDLVKEDLDLVVEAASIKAVEEIAEKSLINNKDVLIMSVGALADKKLFLKLRDLAKTVGRKIYLPSGAIGGLDAIKALRLGEIEEVVLKTTKPVAALEDALKNLGYKPEDIKNPVIVFEGDVFKAIKEFPANINVSVTLSIAAEFPAKVVIVADPNAKLNKHELFVKSSIGTLRVCIENVPFEENPRTSALAAYSAVRLIRDLAEPVKVGT”: the “soluble on expression in E. coli” value is given as “soluble”.
Consider “SPKKAKPTGSGKEEGPAPCKQMKLEAAGGPSALNFDSPSSLFESLISPIKTETFFKEFWEQKPLLIQRDDPALATYYGSLFKLTDLKSLCSRGMYYGRDVNVCRCVNGKKKVLNKDGKAHFLQLRKDFDQKRATIQFHQPQRFKDELWRIQEKLECYFGSLVGSNVYITPAGSQGLPPHYDDVEVFILQLEGEKHWRLYHPTVPLAREYSVEAEERIGRPVHEFMLKPGDLLYFPRGTIHQADTPAGLAHSTHVTISTYQNNSWGDFLLDTISGLVFDTAKEDVELRTGIPRQLLLQVESTTVATRRLSGFLRTLADRLEGTKELLSSDMKKDFIMHRLPPYSAGDGAELSTPGGKLPRLDSVVRLQFKDHIVLTVLPDQDQSDETQEKMVYIYHSLKNSRETHMMGNEEETEFHGLRFPLSHLDALKQIWNSPAISVKDLKLTTDEEKESLVLSLWTECLIQVV”, for which the “soluble on expression in E. coli” value is “soluble”.
With “RTVRQTPKQSERYVVVLSLDGFRPDYTDRARTPALDRMAQEGLSGSLQPCFPSLTFPNHYSMATGLYPDHHGIVANEFVDSLLGIFRISDRKAVETPGFWGGEPVWNTAARQGIRTGVYFWVGSETAVNGNRPWRWKKFSSTVPFRDRADSVIAWLGLPEKERPRLLMWYIEEPDMIGHSQTPESPLTLAMVERLDSVVGYFRKRLDSLPIAAQTDFIIVSDHGMATYENEKCVNLSH”, the “soluble on expression in E. coli” value is on record as “not soluble”.
Consider “PLEKTVRLHSSSGTTGNPTVILHTQKDLDEWANAVARCLYMVGLRPGDIFQNSSGYGMFTGGLGFQYGAERLGMLTVPAAAGNTKRQLKFISDFGTTALHAIPSYAARMYEIMQEMGIDPRRDTKLRTLIIGAEPHSEEQRRRIEDMLGVKAYNSFGMSEMCGPGVAFECQEQNGLHIW”, for which the “soluble on expression in E. coli” value was “not soluble”.
Under “SEELDRQKIGGFWREVGVASDQSLVLTAPKRVEGLFLTLSGSNLTVKVAYNSSGSCEIEKIVGSEIDSTGKFAFPGKCSCPVMAGGTRLCTQLGLIVPHAVPCTVPHAVPCTVLCAVPCTVPHAVP” stands “soluble”.
As to “MRKFIISFCCYVFFIFTLAAQDKAPHYTVIVSLDAFRWDYPAMYDTPNLNQMAREGVKATMLPSYPASTFPNHYTLATGLVPDHNGIINNTFWDVKRRRQYSMGDPATRNNPDYYLGEPIWITAQKQGVKTGNVYWVGSDIAIKGGYPTYYREYAEKPRLTFEQRVDSTIALLEKPEAERPRLVMLYFEEPDGVTHHHGPRSVEAAAIIHRMDSLVGMLRQGIASLPFGKDVNLIVTADHGMTEISDDRVVDMNKYLRPEWCEAVDGRTPTSIFTKPEYRDSVYNALKDVPHIHVWKKEEIPAELNYGSSDRIGDIVVAPELGWQFTDVPRALKGAHGYFPQSPDMQVMFRACGPDFKAGYESKGFVNVDIYPLLAHLLKITPEKTDGQFERIKDILKDVSFLEHHHHHH”, the “soluble on expression in E. coli” value is given as “not soluble”.
With “MAHHHHHHMNKVVIISIFFFFFFQDHNNKSINSYNKINSSSTYTHSRILKQLEFITLEEKTVNALQEMLDSVEEDPSEKKCNRLLAKLKIRNEYHKHRKPHNYYARKNKKKEQKRQHLKKNKGKLNRLQQLEEKLFTHADLLRSAIFERTSRVPDGIFYT”, the “soluble on expression in E. coli” value is reported as “not soluble”.
Under “MGSSHHHHHHGGTGENLYFQGGSGHPASLAAHAFGDASTRSPTHTLPSRCHLFLSLSLSTAAVRRSRASPPLAPTRRTHECLSASHTRTCRQSASFSPLEHPFSFSVAILSSTMPREIKTLKEFLAICSRKDARCVKVKHNPSATKFKVRCSRYLYTLVVNDKKKADKIERSIHPSVKKIAVTARSHAKTNAGSKQ” stands “not soluble”.
As to “MSLENSQELTPWQRLTIARMLERPTSLEYIDLIFDSFMEFHGDRAFGDDAAIVGGVAEFNGMPVTVIGQQKGRNTNENIKRNFGMPSPEGYRKALRLMKQAEKFNRPLICFVDTSGAYCGVEAEQRGQGEAIAKNLISMANLKIPVISVVIGEGGSGGALAMAVADEVWMLENSVYSLLSPEGFASILWKDSSRAKEAAEVMKITADDLKGYGIIDKVIKEPDGGAQNDITMVANALRENLKKAIEGLSSTGINELLDNRYNKFRQIGKFIENEDNEGHHHHHH”, the “soluble on expression in E. coli” value is reported as “soluble”.
For “MSLAAVFPLADFRRAGFDRAGESDAWKDSIIKGDCVAALDALPSQSVDAIFADPPYNLQLGGTLHRPDQSLVDAVDDEWDQFASFDAYDAFTRAWLLACRRVLKPNGTIWVIGSYHNIFRVGAMLQNLDFWILNDIVWRKTNPMPNFKGRRFQNAHETMIWASRDPKAKSYTFNYDALKASNDDVQMRSDWLFPICSGHERLKGDDGKKVHPTQKPEALLARIIMASTKPGDIVLDPFFGSGTTGAVAKRLGRHFVGIEREQDYIDAASARITAVEPLGKAELTVMTGKKAEPRVAFNTLVESGLVRPGQVLTDARRRYSAIIRADGTLASGGTAGSIHRLGAKVQGLDACNGWTFWHFEDGDALKPIDDLRTIIRSEMAKAEGHHHHHH”, the “soluble on expression in E. coli” value is listed as “soluble”.
In the case of “MGSDKIHHHHHHMRWFHKKGELARDGWQSVVDATTPGWEYTGIRIAELGSGESLELNDTGVERIFIPLQGSFDVAHHGQVTHLHGRKSVFDGPTDVLYLPTGQTATLSGQGRVAVAEAPTQEPKEWKYIAPAETPVELRGAGRSSRQVHNFGTPEALDAARLIVCEVITPGENWSSYPPHKHDEHIPGHESKLEEIYYFESAPSRVGGRAEAAEGAFGMFSTYSSPAGEIDINAMVYSGDIALVPFGYHGPAVAAPGYDLYYLNVMAGPDPERIWLINDDPAHAWVRDTWTGQAFDDRLPYENANKEG”, the “soluble on expression in E. coli” value is recorded as “not soluble”.
Consider “MGSDKIHHHHHHMTEQVMNKHQLETGLSILGAPVPGQEIVLNEGALSLLEVLCDQFAAEVPKLLEMRRQKQELIDKGSLPDFLPETRAIRDGDWQIRGIPQDLQDRRVEITGPVDRKMIINALNANVKVFMADFEDSLAPSWIKVIQGQINLRDAVRGEIEYTAPETGKHYTLDDDPAVLIARVRGLHLKEKHVAFNGEAIPGALFDFCLYFYHNYRQLLEKGSGPYFYIPKLESHVEARWWAKVFAYVEERFCLTPGTIKCTCLIETLPAVFEMEEILYELRSNIVALNCGRWDYIFSYIKTLKKHSDRILPDRQAVTMDKPFLSAYSRLLIKTCHKRGALAMGGMAAFIPAKDQAQNEAVLVKVRGDKELEARNGHDGTWVAHPGLADTAMGIFNEYIGEDHVNQLHITRDVDAPILARDLLMPCEGERTESGMRLNIRIALQYIEAWIRGNGCVPIYGLMEDAATAEISRTSIWQWIQHEQKLSNGKLVTKALFKEMLVEELANVKLEVGPDRFTHGSFTQAAVLLEEITTADELVDFLTLPGYEILTQGDNA”, for which the “soluble on expression in E. coli” value was “not soluble”.
As for “MSSSLLASLSRLSLLQTRQIHQTIPAGSSVFMKRQKKIDPEVAKQRETRRRKRLEKDIRQMQKHSKKPKPVDELTLDVKSAKNIGERRRPRTELTLEQIDERAIALKDYTRSRLALQQEDDAWIRGAIESQRKALNELKMLKLELYEAAVQPAAKDLPLIVQGPSLTPPIRNYEAPDGDYIDTTRNWAS”, the “soluble on expression in E. coli” value is given as “not soluble”.
With “MHDVMELRNLSMVDLQTFNTQFSKITDRYWREIFRRQNDSHHPDHINVSRLQTANIITVLDENLPQGAIQELTITGLIPKPFSSRRCEVMRYLRERLSCSPDVELSFQGDQLRITNPTLNLENVPVLSMEKH”, the “soluble on expression in E. coli” value is on record as “not soluble”.
With “MSLIIRKLFEFENAHIVRFCSSKRCKSSIHGHSYKVEVLLESKYLDNAGMVYDFGLLKTYIRQIIDSFDHAITLFKYDDAKYLEEMKKYSSRWICLPVNVSAENFCRVFFILIDALLKQTKMVNGEQGVTLQSIIVHETRTGYAQGFREDAEGHHHHHH”, the “soluble on expression in E. coli” value is listed as “not soluble”.
For “MIRFEIHGDNLTITDAIRNYIEEKVGKLERYFNNVPNAVAHVRVKTYSNSTTKIEVTIPLKDVTLRAEERHDDLYAGIDLITNKLERQVRKYKTRVNRKHRDRGDQDIFVAEVQESTTNNHADDIESENDIEIIRSKQFSLKPMDSEEAVLQMNLLGHDFFIFTDRETDGTSIVYRRKDGKYGLIETTELEHHHHHH”, the “soluble on expression in E. coli” value was “soluble”.
